{
  "source": "patent US20190381086",
  "proteins": {"B1": {"name": "full-length human GlyRS (protein)", "chain": "MDGAGAEEVLAPLRLAVRQQGDLVRKLKEDKAPQVDVDKAVAELKARKRVLEAKELALQPKDDIVDRAKMEDTLKRRFFYDQAFAIYGGVSGLYDFGPVGCALKNNIIQTWRQHFIQEEQILEIDCTMLTPEPVLKTSGHVDKFADFMVKDVKNGECFRADHLLKAHLQKLMSDKKCSVEKKSEMESVLAQLDNYGQQELADLFVNYNVKSPITGNDLSPPVSFNLMFKTFIGPGGNMPGYLRPETAQGIFLNFKRLLEFNQGKLPFAAAQIGNSFRNEISPRSGLIRVREFTMAEIEHFVDPSEKDHPKFQNVADLHLYLYSAKAQVSGQSARKMRLGDAVEQGVINNTVLGYFIGRIYLYLTKVGISPDKLRFRQHMENEMAHYACDCWDAESKTSYGWIEIVGCADRSCYDLSCHARATKVPLVAEKPLKEPKTVNVVQFEPSKGAIGKAYKKDAKLVMEYLAICDECYITEMEMLLNEKGEFTIETEGKTFQLTKDMINVKRFQKTLYVEEVVPNVIEPSFGLGRIMYTVFEHTFHVREGDEQRTFFSFPAVVAPFKCSVLPLSQNQEFMPFVKELSEALTRHGVSHKVDDSSGSIGRRYARTDEIGVAFGVTIDFDTVNKTPHTATLRDRDSMRQIRAEISELPSIVQDLANGNITWADVEARYPLFEGQETGKKETIEE"}},
  "target": "Ubc12^N8 made with wild type Ubc12 (thioester-linked to NEDD8), purified, P61081",
  "sequence (P61081 whole entry, looked up)": "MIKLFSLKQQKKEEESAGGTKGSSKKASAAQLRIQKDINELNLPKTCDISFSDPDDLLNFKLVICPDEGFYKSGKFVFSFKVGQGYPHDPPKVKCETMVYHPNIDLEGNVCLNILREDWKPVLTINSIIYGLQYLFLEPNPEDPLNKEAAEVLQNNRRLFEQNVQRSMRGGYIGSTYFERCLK",
  "data": [
    {"protein": "B1", "values": [
      {"measurement": "stability (half-life) of Ubc12^N8 in vitro at 37°, SDS-PAGE", "result": "In the presence of GlyRS, but not BSA, Ubc12^N8 was significantly more stable than in the absence of GlyRS"}
    ]}
  ]
}
